Laboratory results: the supplement of paper PMC10065799, “High-throughput profiling of sequence recognition by tyrosine kinases and SH2 domains using bacterial peptide display” (eLife, 2023)

How the values were obtained:
[1] = molecular target: EPHB2 (UniProt P29323); test: phosphorylation enrichment, bacterial display (enrichment ratio); higher = better substrate or ligand; peptides without Tyr show the background
[2] = molecular target: Jak2 (UniProt O60674); test: as above
[3] = molecular target: MERTK (UniProt Q12866); test: as above
[4] = test system: AncSZ; test: as above
[5] = test system: Fer (mouse); test: as above
[6] = molecular target: Fyn (UniProt P06241); test: as above
[7] = molecular target: FGFR3 (UniProt P22607); test: as above
[8] = molecular target: FGFR1 (UniProt P11362); test: as above
[9] = molecular target: Hck (UniProt P08631); test: as above
[10] = molecular target: Fes (UniProt P07332); test: as above
[11] = molecular target: EPHB1 (UniProt P54762); test: as above
[12] = test system: c-Abl (mouse); test: as above
[13] = test system: c-Src; test: as above
[14] = molecular target: Grb2 SH2 (UniProt P62993); test: SH2 binding enrichment of the phosphorylated peptide, bacterial display (enrichment ratio); higher = better substrate or ligand; peptides without Tyr show the background
[15] = molecular target: SHP2-C SH2; test: as above
[16] = molecular target: c-Src SH2; test: as above
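Throughout, for SH2 binding enrichment of the phosphorylated peptide, bacterial display: peptide library displayed on the E. coli surface as eCPX fusions, selected cells deep-sequenced, score is each peptide's frequency after selection divided by its frequency in the input.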
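Throughout, for phosphorylation enrichment, bacterial display: 11-residue human phosphosite peptides and single-mutation variants displayed on the E. coli surface, counted by deep sequencing, each peptide's frequency after selection divided by its frequency in the unselected input library; frequency after pTyr selection over input frequency; kinase dosed for 20-30% of maximal phosphorylation in three min.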

Sequence of EPHB2 (P29323 whole entry, looked up): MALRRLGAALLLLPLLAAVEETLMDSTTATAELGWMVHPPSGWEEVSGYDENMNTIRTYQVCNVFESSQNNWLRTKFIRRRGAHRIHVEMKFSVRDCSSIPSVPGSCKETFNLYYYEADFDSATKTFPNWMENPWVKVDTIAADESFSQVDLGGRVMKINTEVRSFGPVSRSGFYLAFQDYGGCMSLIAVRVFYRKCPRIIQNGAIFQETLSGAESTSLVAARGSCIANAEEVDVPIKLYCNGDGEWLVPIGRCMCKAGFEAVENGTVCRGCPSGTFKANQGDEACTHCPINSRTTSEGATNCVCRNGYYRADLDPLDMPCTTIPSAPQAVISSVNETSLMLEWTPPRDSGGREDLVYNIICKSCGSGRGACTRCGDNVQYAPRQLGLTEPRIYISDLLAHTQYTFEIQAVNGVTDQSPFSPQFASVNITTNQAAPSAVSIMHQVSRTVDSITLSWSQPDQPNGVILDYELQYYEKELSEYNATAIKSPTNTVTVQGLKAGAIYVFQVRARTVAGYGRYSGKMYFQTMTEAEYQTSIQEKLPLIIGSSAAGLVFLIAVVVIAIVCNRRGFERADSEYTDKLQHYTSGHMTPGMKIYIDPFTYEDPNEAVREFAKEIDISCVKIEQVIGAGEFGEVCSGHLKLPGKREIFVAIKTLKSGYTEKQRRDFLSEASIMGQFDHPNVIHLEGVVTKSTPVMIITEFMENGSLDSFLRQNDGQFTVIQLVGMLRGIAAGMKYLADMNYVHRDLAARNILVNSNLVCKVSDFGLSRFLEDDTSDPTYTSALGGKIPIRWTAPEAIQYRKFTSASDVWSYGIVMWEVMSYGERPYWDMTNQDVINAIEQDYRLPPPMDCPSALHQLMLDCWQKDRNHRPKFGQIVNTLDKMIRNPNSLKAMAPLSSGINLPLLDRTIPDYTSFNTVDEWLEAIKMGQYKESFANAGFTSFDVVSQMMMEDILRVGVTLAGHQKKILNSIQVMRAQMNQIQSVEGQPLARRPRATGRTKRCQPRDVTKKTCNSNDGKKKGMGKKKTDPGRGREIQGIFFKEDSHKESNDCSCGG
Sequence of MERTK (Q12866 whole entry, looked up): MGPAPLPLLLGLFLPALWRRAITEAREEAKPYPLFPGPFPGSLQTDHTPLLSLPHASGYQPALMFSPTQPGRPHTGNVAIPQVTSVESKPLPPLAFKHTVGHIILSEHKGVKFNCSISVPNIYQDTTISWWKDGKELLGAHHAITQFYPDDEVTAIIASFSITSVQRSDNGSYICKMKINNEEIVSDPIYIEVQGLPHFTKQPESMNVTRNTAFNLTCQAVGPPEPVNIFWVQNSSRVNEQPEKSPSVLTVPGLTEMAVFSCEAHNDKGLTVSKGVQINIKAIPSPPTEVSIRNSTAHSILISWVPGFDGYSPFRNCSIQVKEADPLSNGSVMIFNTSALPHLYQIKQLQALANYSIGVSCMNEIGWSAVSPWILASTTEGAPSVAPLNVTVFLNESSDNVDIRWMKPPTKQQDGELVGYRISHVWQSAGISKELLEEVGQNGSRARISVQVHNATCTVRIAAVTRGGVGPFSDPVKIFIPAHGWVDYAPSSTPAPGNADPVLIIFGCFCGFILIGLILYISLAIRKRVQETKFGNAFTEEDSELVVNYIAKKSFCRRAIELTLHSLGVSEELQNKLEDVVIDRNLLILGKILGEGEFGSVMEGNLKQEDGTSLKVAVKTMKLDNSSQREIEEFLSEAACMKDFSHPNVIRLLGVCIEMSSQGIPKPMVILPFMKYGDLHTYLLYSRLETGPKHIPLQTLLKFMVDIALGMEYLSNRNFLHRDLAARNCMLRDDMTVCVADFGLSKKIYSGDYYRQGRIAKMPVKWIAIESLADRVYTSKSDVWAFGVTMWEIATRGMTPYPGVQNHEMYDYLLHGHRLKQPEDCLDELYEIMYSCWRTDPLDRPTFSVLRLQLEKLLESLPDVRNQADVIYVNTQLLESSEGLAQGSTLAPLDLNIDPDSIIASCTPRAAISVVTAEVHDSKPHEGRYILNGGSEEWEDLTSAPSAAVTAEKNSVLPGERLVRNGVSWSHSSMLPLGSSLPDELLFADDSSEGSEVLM
Sequence of Fyn (P06241 whole entry, looked up): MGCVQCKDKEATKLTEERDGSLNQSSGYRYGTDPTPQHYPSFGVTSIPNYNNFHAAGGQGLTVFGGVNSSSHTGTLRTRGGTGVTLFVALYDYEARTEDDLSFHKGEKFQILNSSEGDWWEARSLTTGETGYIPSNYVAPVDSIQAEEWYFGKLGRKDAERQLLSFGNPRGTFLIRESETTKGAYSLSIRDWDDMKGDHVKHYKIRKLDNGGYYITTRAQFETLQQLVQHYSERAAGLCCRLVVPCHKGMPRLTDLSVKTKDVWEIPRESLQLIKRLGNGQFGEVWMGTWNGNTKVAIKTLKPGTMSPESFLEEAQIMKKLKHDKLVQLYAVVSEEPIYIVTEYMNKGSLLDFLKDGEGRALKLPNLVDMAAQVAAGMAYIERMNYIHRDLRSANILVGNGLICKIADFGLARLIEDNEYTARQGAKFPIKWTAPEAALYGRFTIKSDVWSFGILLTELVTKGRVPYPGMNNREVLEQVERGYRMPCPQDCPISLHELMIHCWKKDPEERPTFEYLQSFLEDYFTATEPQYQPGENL
Sequence of Jak2 (O60674 whole entry, looked up): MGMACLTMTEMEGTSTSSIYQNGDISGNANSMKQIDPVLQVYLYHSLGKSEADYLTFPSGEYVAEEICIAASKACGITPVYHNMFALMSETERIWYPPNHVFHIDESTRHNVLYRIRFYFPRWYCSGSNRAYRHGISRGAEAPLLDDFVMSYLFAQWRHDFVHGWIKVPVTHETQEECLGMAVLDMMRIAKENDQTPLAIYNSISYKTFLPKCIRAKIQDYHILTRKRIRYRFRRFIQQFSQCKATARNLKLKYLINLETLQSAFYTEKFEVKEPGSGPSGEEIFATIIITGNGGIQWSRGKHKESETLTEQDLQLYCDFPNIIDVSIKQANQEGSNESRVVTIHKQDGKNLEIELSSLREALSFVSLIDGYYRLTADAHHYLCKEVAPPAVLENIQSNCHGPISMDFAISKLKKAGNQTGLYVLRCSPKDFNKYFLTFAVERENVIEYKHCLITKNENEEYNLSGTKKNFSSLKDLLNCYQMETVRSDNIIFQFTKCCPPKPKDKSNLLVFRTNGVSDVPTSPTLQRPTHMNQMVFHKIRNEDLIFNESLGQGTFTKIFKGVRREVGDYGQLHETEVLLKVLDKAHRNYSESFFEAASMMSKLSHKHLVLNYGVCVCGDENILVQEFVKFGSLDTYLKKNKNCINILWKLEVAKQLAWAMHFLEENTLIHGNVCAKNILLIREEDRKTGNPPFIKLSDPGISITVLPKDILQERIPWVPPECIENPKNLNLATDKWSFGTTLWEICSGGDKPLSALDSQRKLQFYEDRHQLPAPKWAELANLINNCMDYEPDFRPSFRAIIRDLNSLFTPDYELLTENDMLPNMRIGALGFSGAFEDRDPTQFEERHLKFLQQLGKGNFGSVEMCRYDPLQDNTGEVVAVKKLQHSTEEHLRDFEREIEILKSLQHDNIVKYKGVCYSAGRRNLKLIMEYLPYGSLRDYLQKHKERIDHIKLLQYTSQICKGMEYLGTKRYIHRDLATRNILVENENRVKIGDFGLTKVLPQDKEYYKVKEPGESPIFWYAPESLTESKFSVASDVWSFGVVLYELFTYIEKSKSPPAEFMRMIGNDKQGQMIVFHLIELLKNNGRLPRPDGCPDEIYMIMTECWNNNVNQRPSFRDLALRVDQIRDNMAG
Sequence of FGFR1 (P11362 whole entry, looked up): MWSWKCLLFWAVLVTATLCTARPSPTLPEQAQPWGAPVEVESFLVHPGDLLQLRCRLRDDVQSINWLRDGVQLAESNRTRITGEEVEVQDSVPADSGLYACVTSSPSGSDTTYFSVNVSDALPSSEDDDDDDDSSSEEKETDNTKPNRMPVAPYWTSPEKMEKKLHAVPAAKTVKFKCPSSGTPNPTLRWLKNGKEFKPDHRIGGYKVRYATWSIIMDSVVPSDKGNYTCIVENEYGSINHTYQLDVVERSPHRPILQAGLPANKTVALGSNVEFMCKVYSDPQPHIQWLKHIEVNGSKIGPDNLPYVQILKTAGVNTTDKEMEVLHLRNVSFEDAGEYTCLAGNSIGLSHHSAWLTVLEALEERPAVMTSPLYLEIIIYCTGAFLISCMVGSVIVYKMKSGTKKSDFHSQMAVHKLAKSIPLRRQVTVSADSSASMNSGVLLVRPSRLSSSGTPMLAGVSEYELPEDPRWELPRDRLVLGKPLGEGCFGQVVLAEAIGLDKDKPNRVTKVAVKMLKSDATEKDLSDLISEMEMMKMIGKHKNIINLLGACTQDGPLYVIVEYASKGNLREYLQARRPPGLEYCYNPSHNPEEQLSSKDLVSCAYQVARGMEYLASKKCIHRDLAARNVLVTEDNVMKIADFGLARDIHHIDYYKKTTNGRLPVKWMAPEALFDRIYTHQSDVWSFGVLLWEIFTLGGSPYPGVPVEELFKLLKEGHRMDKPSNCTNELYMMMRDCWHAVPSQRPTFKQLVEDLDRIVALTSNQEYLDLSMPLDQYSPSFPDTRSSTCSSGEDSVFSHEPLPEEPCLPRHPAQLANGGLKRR
Sequence of Hck (P08631 whole entry, looked up): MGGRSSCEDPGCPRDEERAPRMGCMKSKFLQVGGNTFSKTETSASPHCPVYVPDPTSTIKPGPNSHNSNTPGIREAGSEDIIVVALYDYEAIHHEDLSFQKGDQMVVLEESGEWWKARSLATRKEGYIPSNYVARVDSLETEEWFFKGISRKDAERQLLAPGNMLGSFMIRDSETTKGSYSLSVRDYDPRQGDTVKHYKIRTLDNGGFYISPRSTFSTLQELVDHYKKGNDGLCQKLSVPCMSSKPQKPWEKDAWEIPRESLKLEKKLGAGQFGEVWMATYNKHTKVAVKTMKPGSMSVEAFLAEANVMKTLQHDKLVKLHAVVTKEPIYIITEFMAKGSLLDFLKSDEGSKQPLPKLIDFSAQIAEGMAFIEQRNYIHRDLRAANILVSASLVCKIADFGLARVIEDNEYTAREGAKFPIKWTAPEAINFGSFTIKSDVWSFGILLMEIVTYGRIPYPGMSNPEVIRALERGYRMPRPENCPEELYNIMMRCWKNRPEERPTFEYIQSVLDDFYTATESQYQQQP

| Sequence | SH2 binding enrichment [14] | SH2 binding enrichment [15] | SH2 binding enrichment [16] | phosphorylation enrichment [1] | phosphorylation enrichment [2] | phosphorylation enrichment [3] | phosphorylation enrichment [4] | phosphorylation enrichment [5] | phosphorylation enrichment [6] | phosphorylation enrichment [7] | phosphorylation enrichment [8] | phosphorylation enrichment [9] | phosphorylation enrichment [10] | phosphorylation enrichment [11] | phosphorylation enrichment [12] | phosphorylation enrichment [13] |
| --- | --- | --- | --- | --- | --- | --- | --- | --- | --- | --- | --- | --- | --- | --- | --- | --- |
| SFHSSYSEIKD [DCLRE1C_Y322] | 0.982 | 4.96 | 22.5 | 0.532 | 0.559 | 0.57 | 0.738 | 0.52 | 0.512 | 0.681 | 0.554 | 0.51 | 0.744 | 0.435 | 0.448 | 0.506 |
| SFKNKYGMVAQ [APOB_Y276_YF] | 0.934 | 0.543 | 0.455 | 0.354 | 0.43 | 0.341 | 0.42 | 0.335 | 0.353 | 0.39 | 0.335 | 0.354 | 0.574 | 0.302 | 0.465 | 0.375 |
| SGGCSYGSGGG [KRT1_Y539_G537C] | 0.782 | 0.655 | 0.462 | 0.478 | 0.773 | 0.346 | 0.803 | 0.462 | 0.381 | 0.561 | 0.402 | 0.446 | 0.916 | 0.475 | 0.637 | 0.394 |
| SGIFQYNIAKF [FOXL2_Y83_I84N_YF] | 1.21 | 1.11 | 0.899 | 0.541 | 0.876 | 0.435 | 0.786 | 0.48 | 0.472 | 0.691 | 0.486 | 0.494 | 1.01 | 0.59 | 0.739 | 0.432 |
| SGSWSYNTSTE [SELE_Y24_A21S] | 0.826 | 0.565 | 0.55 | 0.586 | 0.968 | 0.503 | 0.925 | 0.393 | 0.5 | 0.768 | 0.527 | 0.536 | 1.07 | 0.56 | 0.787 | 0.503 |
| SGVSFYINLCQ [IGF2R_Y2025_N2020S_YF] | 2.21 | 1.32 | 1.48 | 0.695 | 1.61 | 0.686 | 1.5 | 0.529 | 0.361 | 1.19 | 0.787 | 0.481 | 1.46 | 0.806 | 1.04 | 0.522 |
| SHMVDYQPFRK [TEX37_Y25_YF] | 0.948 | 1.06 | 0.383 | 0.445 | 1.03 | 0.473 | 0.564 | 0.294 | 0.5 | 0.464 | 0.387 | 0.732 | 0.705 | 0.549 | 0.967 | 0.672 |
| SIIKDSFHRGA [GATM_Y203_Y203S] | 0.838 | 0.829 | 0.482 | 0.334 | 0.404 | 0.362 | 0.423 | 0.403 | 0.369 | 0.462 | 0.379 | 0.394 | 0.414 | 0.342 | 0.497 | 0.387 |
| SIKDKYVTAFY [KCNH2_Y611_L615F] | 0.607 | 0.525 | 0.461 | 0.439 | 0.523 | 0.358 | 0.578 | 0.401 | 0.428 | 0.475 | 0.483 | 0.414 | 0.67 | 0.488 | 0.391 | 0.383 |
| SILAVYSKDNY [PANK2_Y400] | 0.681 | 0.612 | 0.855 | 0.486 | 0.549 | 0.588 | 0.925 | 0.425 | 0.756 | 0.524 | 0.451 | 0.875 | 0.664 | 0.478 | 0.653 | 1.11 |
| SLEKSYELPDG [ACTA1_Y242] | 0.824 | 0.65 | 1.26 | 0.531 | 0.913 | 0.467 | 1.06 | 0.538 | 0.49 | 0.707 | 0.544 | 0.534 | 1.15 | 0.614 | 0.712 | 0.479 |

More lines, main results first:

| SH2 binding enrichment [14] | SH2 binding enrichment [15] | SH2 binding enrichment [16] | Sequence | phosphorylation enrichment [1] | phosphorylation enrichment [2] | phosphorylation enrichment [3] | phosphorylation enrichment [4] | phosphorylation enrichment [5] | phosphorylation enrichment [6] | phosphorylation enrichment [7] | phosphorylation enrichment [8] | phosphorylation enrichment [9] | phosphorylation enrichment [10] | phosphorylation enrichment [11] | phosphorylation enrichment [12] | phosphorylation enrichment [13] |
| --- | --- | --- | --- | --- | --- | --- | --- | --- | --- | --- | --- | --- | --- | --- | --- | --- |
| 0.864 | 0.679 | 0.524 | SEPDLYYDPRG [PKP1_Y160_C161Y] | 13.6 | 3.35 | 7.05 | 2.91 | 1.65 | 5.41 | 8.64 | 10.8 | 8.75 | 1.16 | 14.3 | 3.09 | 4.93 |
| 0.93 | 0.623 | 0.643 | SFPHEYGSQEG [RBM10_Y48_R46H_YF] | 0.602 | 0.645 | 0.459 | 0.768 | 0.47 | 0.515 | 1.46 | 0.565 | 0.679 | 0.87 | 0.485 | 0.583 | 0.395 |
| 0.897 | 0.687 | 0.618 | SHLSAYPALEG [CD5_Y465] | 0.398 | 0.483 | 0.324 | 0.611 | 0.409 | 0.375 | 0.411 | 0.404 | 0.372 | 0.591 | 0.351 | 0.531 | 0.343 |
| 0.932 | 0.885 | 0.367 | SHSMRYFDTSV [HLA-C_Y31_A35S] | 0.448 | 0.543 | 0.386 | 0.581 | 0.37 | 0.432 | 0.463 | 0.47 | 0.393 | 0.576 | 0.482 | 0.455 | 0.432 |
| 0.752 | 0.64 | 0.423 | SHSMRYFSTAV [HLA-C_Y31_D33S] | 0.452 | 0.625 | 0.425 | 0.719 | 0.435 | 0.459 | 0.569 | 0.657 | 0.452 | 0.763 | 0.431 | 0.578 | 0.441 |
